Sequences and labels used below:
T1: FPR1 (UniProt P21462 1-350, limits assumed)
T1 sequence (looked up): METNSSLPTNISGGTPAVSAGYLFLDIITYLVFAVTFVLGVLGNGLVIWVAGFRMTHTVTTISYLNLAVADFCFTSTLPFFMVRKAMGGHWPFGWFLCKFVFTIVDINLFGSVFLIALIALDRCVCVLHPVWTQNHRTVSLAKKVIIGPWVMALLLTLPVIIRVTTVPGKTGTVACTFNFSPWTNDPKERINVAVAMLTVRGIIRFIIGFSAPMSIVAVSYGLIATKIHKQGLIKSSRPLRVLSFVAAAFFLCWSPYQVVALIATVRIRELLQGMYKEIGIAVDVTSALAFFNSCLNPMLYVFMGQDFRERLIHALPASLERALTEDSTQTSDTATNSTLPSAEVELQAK

T2: formyl peptide receptor 2 (FPR2) (UniProt P25090 1-351, limits assumed)
T2 sequence (looked up): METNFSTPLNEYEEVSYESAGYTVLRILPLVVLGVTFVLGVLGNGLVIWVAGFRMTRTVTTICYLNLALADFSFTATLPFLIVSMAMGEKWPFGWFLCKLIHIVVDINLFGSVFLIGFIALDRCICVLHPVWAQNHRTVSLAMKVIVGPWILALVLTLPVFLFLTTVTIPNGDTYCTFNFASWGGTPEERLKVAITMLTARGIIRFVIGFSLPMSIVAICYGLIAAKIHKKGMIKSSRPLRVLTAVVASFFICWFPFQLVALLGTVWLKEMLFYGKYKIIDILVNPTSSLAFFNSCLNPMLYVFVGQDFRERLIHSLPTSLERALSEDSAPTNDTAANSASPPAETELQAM

B1: peptide of SEQ ID NO 15 (peptide)
peptide: MRYKVM
HELM: PEPTIDE1{[CCCC(=O)[*:2]].M.R.Y.K.V.[dM].[am]}$$$$V2.0
SMILES: CCCC(=O)N[C@@H](CCSC)C(=O)N[C@@H](CCCNC(=N)N)C(=O)N[C@@H](Cc1ccc(O)cc1)C(=O)N[C@@H](CCCCN)C(=O)N[C@H](C(=O)N[C@H](CCSC)C(N)=O)C(C)C
B2: peptide of SEQ ID NO 156 (peptide)
peptide: RWRYFYM
HELM: PEPTIDE1{R.W.R.Y.F.Y.[dM].[am]}$$$$V2.0; N-terminus assumed
SMILES: CSCC[C@@H](NC(=O)[C@H](Cc1ccc(O)cc1)NC(=O)[C@H](Cc1ccccc1)NC(=O)[C@H](Cc1ccc(O)cc1)NC(=O)[C@H](CCCNC(=N)N)NC(=O)[C@H](Cc1c[nH]c2ccccc12)NC(=O)[C@@H](N)CCCNC(=N)N)C(N)=O
B3: peptide of SEQ ID NO 144 (peptide)
peptide: IKYKPM
HELM: PEPTIDE1{[CCCC(=O)[*:2]].I.K.Y.K.P.[dM].[am]}$$$$V2.0
SMILES: CCCC(=O)N[C@H](C(=O)N[C@@H](CCCCN)C(=O)N[C@@H](Cc1ccc(O)cc1)C(=O)N[C@@H](CCCCN)C(=O)N1CCC[C@H]1C(=O)N[C@H](CCSC)C(N)=O)[C@@H](C)CC
B4: peptide of SEQ ID NO 154 (peptide)
peptide: RWRYLYM
HELM: PEPTIDE1{R.W.R.Y.L.Y.[dM].[am]}$$$$V2.0; N-terminus assumed
SMILES: CSCC[C@@H](NC(=O)[C@H](Cc1ccc(O)cc1)NC(=O)[C@H](CC(C)C)NC(=O)[C@H](Cc1ccc(O)cc1)NC(=O)[C@H](CCCNC(=N)N)NC(=O)[C@H](Cc1c[nH]c2ccccc12)NC(=O)[C@@H](N)CCCNC(=N)N)C(N)=O
B5: peptide of SEQ ID NO 18 (peptide)
peptide: MKYKVM
HELM: PEPTIDE1{[ac].M.K.Y.K.V.[dM].[am]}$$$$V2.0
SMILES: CSCC[C@H](NC(C)=O)C(=O)N[C@@H](CCCCN)C(=O)N[C@@H](Cc1ccc(O)cc1)C(=O)N[C@@H](CCCCN)C(=O)N[C@H](C(=O)N[C@H](CCSC)C(N)=O)C(C)C
B6: peptide of SEQ ID NO 147 (peptide)
peptide: HKYKPM
HELM: PEPTIDE1{[ac].H.K.Y.K.P.[dM].[am]}$$$$V2.0
SMILES: CSCC[C@@H](NC(=O)[C@@H]1CCCN1C(=O)[C@H](CCCCN)NC(=O)[C@H](Cc1ccc(O)cc1)NC(=O)[C@H](CCCCN)NC(=O)[C@H](Cc1c[nH]cn1)NC(C)=O)C(N)=O
B7: peptide of SEQ ID NO 23 (peptide)
peptide: HMKYKVM
HELM: PEPTIDE1{[CCCC(=O)[*:2]].H.M.K.Y.K.V.[dM].[am]}$$$$V2.0
SMILES: CCCC(=O)N[C@@H](Cc1c[nH]cn1)C(=O)N[C@@H](CCSC)C(=O)N[C@@H](CCCCN)C(=O)N[C@@H](Cc1ccc(O)cc1)C(=O)N[C@@H](CCCCN)C(=O)N[C@H](C(=O)N[C@H](CCSC)C(N)=O)C(C)C
B8: peptide of SEQ ID NO 143 (peptide)
peptide: IKYKPM
HELM: PEPTIDE1{[ac].I.K.Y.K.P.[dM].[am]}$$$$V2.0
SMILES: CC[C@H](C)[C@H](NC(C)=O)C(=O)N[C@@H](CCCCN)C(=O)N[C@@H](Cc1ccc(O)cc1)C(=O)N[C@@H](CCCCN)C(=O)N1CCC[C@H]1C(=O)N[C@H](CCSC)C(N)=O
B9: peptide of SEQ ID NO 149 (peptide)
peptide: HKYKPM
HELM: PEPTIDE1{[CCCCCCCC(=O)[*:2]].H.K.Y.K.P.[dM].[am]}$$$$V2.0
SMILES: CCCCCCCC(=O)N[C@@H](Cc1c[nH]cn1)C(=O)N[C@@H](CCCCN)C(=O)N[C@@H](Cc1ccc(O)cc1)C(=O)N[C@@H](CCCCN)C(=O)N1CCC[C@H]1C(=O)N[C@H](CCSC)C(N)=O
B10: peptide of SEQ ID NO 142 (peptide)
peptide: IKYKPM
HELM: PEPTIDE1{I.K.Y.K.P.[dM].[am]}$$$$V2.0; N-terminus assumed
SMILES: CC[C@H](C)[C@H](N)C(=O)N[C@@H](CCCCN)C(=O)N[C@@H](Cc1ccc(O)cc1)C(=O)N[C@@H](CCCCN)C(=O)N1CCC[C@H]1C(=O)N[C@H](CCSC)C(N)=O
B11: peptide of SEQ ID NO 24 (peptide)
peptide: HMKYKVM
HELM: PEPTIDE1{[CCCCCCCC(=O)[*:2]].H.M.K.Y.K.V.[dM].[am]}$$$$V2.0
SMILES: CCCCCCCC(=O)N[C@@H](Cc1c[nH]cn1)C(=O)N[C@@H](CCSC)C(=O)N[C@@H](CCCCN)C(=O)N[C@@H](Cc1ccc(O)cc1)C(=O)N[C@@H](CCCCN)C(=O)N[C@H](C(=O)N[C@H](CCSC)C(N)=O)C(C)C
B12: peptide of SEQ ID NO 148 (peptide)
peptide: HKYKPM
HELM: PEPTIDE1{[CCCC(=O)[*:2]].H.K.Y.K.P.[dM].[am]}$$$$V2.0
SMILES: CCCC(=O)N[C@@H](Cc1c[nH]cn1)C(=O)N[C@@H](CCCCN)C(=O)N[C@@H](Cc1ccc(O)cc1)C(=O)N[C@@H](CCCCN)C(=O)N1CCC[C@H]1C(=O)N[C@H](CCSC)C(N)=O
B13: peptide of SEQ ID NO 146 (peptide)
peptide: HKYKPM
HELM: PEPTIDE1{H.K.Y.K.P.[dM].[am]}$$$$V2.0; N-terminus assumed
SMILES: CSCC[C@@H](NC(=O)[C@@H]1CCCN1C(=O)[C@H](CCCCN)NC(=O)[C@H](Cc1ccc(O)cc1)NC(=O)[C@H](CCCCN)NC(=O)[C@@H](N)Cc1c[nH]cn1)C(N)=O
B14: peptide of SEQ ID NO 157 (peptide)
peptide: RWRYTYM
HELM: PEPTIDE1{R.W.R.Y.T.Y.[dM].[am]}$$$$V2.0; N-terminus assumed
SMILES: CSCC[C@@H](NC(=O)[C@H](Cc1ccc(O)cc1)NC(=O)[C@@H](NC(=O)[C@H](Cc1ccc(O)cc1)NC(=O)[C@H](CCCNC(=N)N)NC(=O)[C@H](Cc1c[nH]c2ccccc12)NC(=O)[C@@H](N)CCCNC(=N)N)[C@@H](C)O)C(N)=O
B15: peptide of SEQ ID NO 17 (peptide)
peptide: MKYKVM
HELM: PEPTIDE1{M.K.Y.K.V.[dM].[am]}$$$$V2.0; N-terminus assumed
SMILES: CSCC[C@H](N)C(=O)N[C@@H](CCCCN)C(=O)N[C@@H](Cc1ccc(O)cc1)C(=O)N[C@@H](CCCCN)C(=O)N[C@H](C(=O)N[C@H](CCSC)C(N)=O)C(C)C
B16: peptide of SEQ ID NO 19 (peptide)
peptide: MKYKVM
HELM: PEPTIDE1{[CCCC(=O)[*:2]].M.K.Y.K.V.[dM].[am]}$$$$V2.0
SMILES: CCCC(=O)N[C@@H](CCSC)C(=O)N[C@@H](CCCCN)C(=O)N[C@@H](Cc1ccc(O)cc1)C(=O)N[C@@H](CCCCN)C(=O)N[C@H](C(=O)N[C@H](CCSC)C(N)=O)C(C)C
B17: peptide of SEQ ID NO 22 (peptide)
peptide: HMKYKVM
HELM: PEPTIDE1{[ac].H.M.K.Y.K.V.[dM].[am]}$$$$V2.0
SMILES: CSCC[C@H](NC(=O)[C@H](Cc1c[nH]cn1)NC(C)=O)C(=O)N[C@@H](CCCCN)C(=O)N[C@@H](Cc1ccc(O)cc1)C(=O)N[C@@H](CCCCN)C(=O)N[C@H](C(=O)N[C@H](CCSC)C(N)=O)C(C)C
B18: peptide of SEQ ID NO 21 (peptide)
peptide: HMKYKVM
HELM: PEPTIDE1{H.M.K.Y.K.V.[dM].[am]}$$$$V2.0; N-terminus assumed
SMILES: CSCC[C@H](NC(=O)[C@@H](N)Cc1c[nH]cn1)C(=O)N[C@@H](CCCCN)C(=O)N[C@@H](Cc1ccc(O)cc1)C(=O)N[C@@H](CCCCN)C(=O)N[C@H](C(=O)N[C@H](CCSC)C(N)=O)C(C)C

The target of one assay is T1, FPR1. Nature of the assay: cell-based or functional assay.
Take B1: the “EC50 for [Ca2+]” value was above 10 µM.
Still for that read-out and setting: under B2 stands above 10 µM.
Same read-out and setting: the same measure for B3: above 10 µM.
On to B4, for which the “EC50 for [Ca2+]” value is above 10 µM.
B5: the “EC50 for [Ca2+]” value was above 10 µM.
In the case of B6, the “EC50 for [Ca2+]” value was above 10 µM.
Take B7: the “EC50 for [Ca2+]” value was above 10 µM.
Take B8: the “EC50 for [Ca2+]” value was above 10 µM.
For B9, the “EC50 for [Ca2+]” value was above 10 µM.
Regarding B10, the “EC50 for [Ca2+]” value was above 10 µM.
The same measure, in the same setting: under B11 stands above 10 µM.
On to B12, for which the “EC50 for [Ca2+]” value is above 10 µM.
With B13, the “EC50 for [Ca2+]” value was above 10 µM.
Regarding B14, the “EC50 for [Ca2+]” value was above 10 µM.
As to B15, the “EC50 for [Ca2+]” value is above 10 µM.
As for B16, the “EC50 for [Ca2+]” value is above 10 µM.
On the same count and under the same terms, the same measure for B17: above 10 µM.
For the molecule B18, the “EC50 for [Ca2+]” value was above 10 µM.

Another assay deals with T2, formyl peptide receptor 2 (FPR2). The experiment in a line: cell-based or functional assay.
With B1, the “EC50 for [Ca2+]” value is below 0.01 µM.
The same measure, in the same setting: the same measure for B2: below 0.01 µM.
As for B3, the “EC50 for [Ca2+]” value was below 0.01 µM.
On to B4, for which the “EC50 for [Ca2+]” value was below 0.01 µM.
Consider B5, for which the “EC50 for [Ca2+]” value is below 0.01 µM.
The same measure, in the same setting: under B6 stands below 0.01 µM; under B7, below 0.01 µM.
As to B8, the “EC50 for [Ca2+]” value was below 0.01 µM.
Consider B9, for which the “EC50 for [Ca2+]” value is below 0.01 µM.
Take B10: the “EC50 for [Ca2+]” value is below 0.01 µM.
Same read-out and setting: the same measure for B11: below 0.01 µM; for B12: below 0.01 µM.
Regarding B13, the “EC50 for [Ca2+]” value is below 0.01 µM.
Turning to B14, the “EC50 for [Ca2+]” value was below 0.01 µM.
As for B15, the “EC50 for [Ca2+]” value was below 0.01 µM.
In the case of B16, the “EC50 for [Ca2+]” value was below 0.01 µM.
The same measure, in the same setting: under B17 stands below 0.01 µM; under B18, below 0.01 µM.

(Values after patent US20250361268A1, “NOVEL ANTI-INFLAMMATORY PEPTIDE AND USE THEREOF” (NOVACELL TECHNOLOGY INC., priority 2022, published 2025).)
